# Measured values as given in IntAct's records for PubMed 31515488.
# B1: LIM/homeobox protein Lhx4 (Homo sapiens), Q969G2 (parent)
# chain: MMQSATVPAEGAVKGLPEMLGVPMQQIPQCAGCNQHILDKFILKVLDRHWHSSCLKCADCQMQLADRCFSRAGSVYCKEDFFKRFGTKCTACQQGIPPTQVVRKAQDFVYHLHCFACIICNRQLATGDEFYLMEDGRLVCKEDYETAKQNDDSEAGAKRPRTTITAKQLETLKNAYKNSPKPARHVREQLSSETGLDMRVVQVWFQNRRAKEKRLKKDAGRHRWGQFYKSVKRSRGSSKQEKESSAEDCGVSDSELSFREDQILSELGHTNRIYGNVGDVTGGQLMNGSFSMDGTGQSYQDLRDGSPYGIPQSPSSISSLPSHAPLLNGLDYTVDSNLGIIAHAGQGVSQTLRAMAGGPTSDISTGSSVGYPDFPTSPGSWLDEMDHPPF
# partner: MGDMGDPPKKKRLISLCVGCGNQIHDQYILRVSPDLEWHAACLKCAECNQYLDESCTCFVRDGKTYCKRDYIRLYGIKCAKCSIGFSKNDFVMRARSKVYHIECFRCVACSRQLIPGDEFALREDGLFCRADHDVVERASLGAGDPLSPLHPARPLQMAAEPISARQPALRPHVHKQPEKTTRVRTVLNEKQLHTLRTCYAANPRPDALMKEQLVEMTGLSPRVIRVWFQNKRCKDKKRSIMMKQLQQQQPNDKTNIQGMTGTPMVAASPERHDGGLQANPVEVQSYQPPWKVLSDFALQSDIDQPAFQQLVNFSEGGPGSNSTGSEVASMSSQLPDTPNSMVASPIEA
# B2: Carboxy-terminal domain RNA polymerase II polypeptide A small phosphatase 1 (Homo sapiens), Q9GZU7 (parent)
# chain: MDSSAVITQISKEEARGPLRGKGDQKSAASQKPRSRGILHSLFCCVCRDDGEALPAHSGAPLLVEENGAIPKQTPVQYLLPEAKAQDSDKICVVIDLDETLVHSSFKPVNNADFIIPVEIDGVVHQVYVLKRPHVDEFLQRMGELFECVLFTASLAKYADPVADLLDKWGAFRARLFRESCVFHRGNYVKDLSRLGRDLRRVLILDNSPASYVFHPDNAVPVASWFDNMSDTELHDLLPFFEQLSRVDDVYSVLRQPRPGS
# B3: TBC1 domain family member 7 (Homo sapiens), Q9P0N9 (parent)
# chain: MTEDSQRNFRSVYYEKVGFRGVEEKKSLEILLKDDRLDTEKLCTFSQRFPLPSMYRALVWKVLLGILPPHHESHAKVMMYRKEQYLDVLHALKVVRFVSDATPQAEVYLRMYQLESGKLPRSPSFPLEPDDEVFLAIAKAMEEMVEDSVDCYWITRRFVNQLNTKYRDSLPQLPKAFEQYLNLEDGRLLTHLRMCSAAPKLPYDLWFKRCFAGCLPESSLQRVWDKVVSGSCKILVFVAVEILLTFKIKVMALNSAEKITKFLENIPQDSSDAIVSKAIDLWHKHCGTPVHSS
# partner: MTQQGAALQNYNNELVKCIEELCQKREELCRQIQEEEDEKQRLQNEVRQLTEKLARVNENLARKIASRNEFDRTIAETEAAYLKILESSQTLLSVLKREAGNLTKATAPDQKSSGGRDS
# B4: DCC-interacting protein 13-beta (Homo sapiens), Q8NEU8 (parent)
# chain: MPAVDKLLLEEALQDSPQTRSLLSVFEEDAGTLTDYTNQLLQAMQRVYGAQNEMCLATQQLSKQLLAYEKQNFALGKGDEEVISTLHYFSKVVDELNLLHTELAKQLADTMVLPIIQFREKDLTEVSTLKDLFGLASNEHDLSMAKYSRLPKKKENEKVKTEVGKEVAAARRKQHLSSLQYYCALNALQYRKQMAMMEPMIGFAHGQINFFKKGAEMFSKRMDSFLSSVADMVQSIQVELEAEAEKMRVSQQELLSVDESVYTPDSDVAAPQINRNLIQKAGYLNLRNKTGLVTTTWERLYFFTQGGNLMCQPRGAVAGGLIQDLDNCSVMAVDCEDRRYCFQITTPNGKSGIILQAESRKENEEWICAINNISRQIYLTDNPEAVAIKLNQTALQAVTPITSFGKKQESSCPSQNLKNSEMENENDKIVPKATASLPEAEELIAPGTPIQFDIVLPATEFLDQNRGSRRTNPFGETEDESFPEAEDSLLQQMFIVRFLGSMAVKTDSTTEVIYEAMRQVLAARAIHNIFRMTESHLMVTSQSLRLIDPQTQVSRANFELTSVTQFAAHQENKRLVGFVIRVPESTGEESLSTYIFESNSEGEKICYAINLGKEIIEVQKDPEALAQLMLSIPLTNDGKYVLLNDQPDDDDGNPNEHRGAESEA
# Variants of: B1
# Settings: with isl1_human ISL1, P61371
row,effect of a mutation on the interaction,Variant
1,with no effect,N328S

# Variants of: B2
# Settings: with mbp_human MBP
row,effect of a mutation on the interaction,Variant
1,with no effect,A56T

# Variants of: B3
# Settings: with ssna1_human SSNA1, O43805
row,effect of a mutation on the interaction,Variant
1,disrupting interaction strength,L67W

# Variants of: B4
# Settings: with rab5c_human RAB5C
row,effect of a mutation on the interaction,Variant
1,with no effect,K70R

# Variants of: B4
# Settings: with cradd_human CRADD
row,effect of a mutation on the interaction,Variant
1,with no effect,H205R

# Variants of: B4
# Settings: with suv92_human SUV39H2, Q9H5I1
# Chain of suv92_human SUV39H2, Q9H5I1 (Q9H5I1 whole entry): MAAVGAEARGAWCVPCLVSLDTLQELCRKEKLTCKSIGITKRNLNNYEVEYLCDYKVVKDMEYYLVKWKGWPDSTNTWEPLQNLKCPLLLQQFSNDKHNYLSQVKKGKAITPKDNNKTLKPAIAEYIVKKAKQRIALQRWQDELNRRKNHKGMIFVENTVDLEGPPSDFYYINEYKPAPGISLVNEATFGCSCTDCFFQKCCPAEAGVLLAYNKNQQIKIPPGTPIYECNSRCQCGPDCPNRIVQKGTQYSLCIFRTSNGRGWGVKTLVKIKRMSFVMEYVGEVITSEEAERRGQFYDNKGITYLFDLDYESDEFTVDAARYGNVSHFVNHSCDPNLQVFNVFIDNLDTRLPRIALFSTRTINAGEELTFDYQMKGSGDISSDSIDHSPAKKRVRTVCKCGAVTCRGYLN
row,effect of a mutation on the interaction,Variant
1,with no effect,H205R
